Each block holds one binder with its values, some of them ahead of it.
Molecular target: T1, human apical domain TfR (human, UniProt P02786 198-378)
T1 construct: also called human TfR; human transferrin receptor 1 apical domain
Assay: SPR (Biacore 8K), fusion captured on Protein A chip, human TfR apical domain as analyte, 1:1 Langmuir fit, monovalent
Description: To determine whether IDUA-Fc fusion proteins with engineered TfR binding affects the ability of the modified Fc domain to interact with human TfR, the affinity of ETV:IDUA Fusions 3, 4, and 6 (Example 1) for human TfR was measured by surface plasmon resonance (SPR) using a Biacore 8K instrument (Cytiva). Five (5) μg/mL of the IDUA-Fc fusion proteins were captured for 1 minute on Protein A-coated Biacore™ Series S CM5 sensor chip and serial 3-fold dilutions of human apical domain TfR were injected at a flow rate of 30 μL/min. Each sample was analyzed with five consecutive 60-second injections with increasing human TfR concentrations followed by a 60-second dissociation at the end of the injection cycle. After each injection, the chip was regenerated using 10 mM glycine-HCl (pH 1.5). Binding response was corrected by subtracting the RU from a flow cell capturing an irrelevant IgG at similar density A. 1:1 Languir model of simultaneous fitting of kₒₙ and koff was used for kinetics analysis using Biacore™ Insight Evaluation Software.

T1 sequence (P02786 198-378 limits assumed): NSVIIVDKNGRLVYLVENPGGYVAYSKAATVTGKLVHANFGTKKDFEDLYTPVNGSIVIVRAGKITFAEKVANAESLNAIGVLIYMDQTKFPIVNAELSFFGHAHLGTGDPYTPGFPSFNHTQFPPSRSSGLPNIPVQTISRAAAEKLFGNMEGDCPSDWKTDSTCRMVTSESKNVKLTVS

Kd: 340 nM
B1: ETV:IDUA Fusion 3 (Fc fusion)
chain 1: DKTHTCPPCPAPEAAGGPSVFLFPPKPKDTLMISRTPEVTCVVVDVSHEDPEVKFNWYVDGVEVHNAKTKPREEQYNSTYRVVSVLTVLHQDWLNGKEYKCKVSNKALSAPIEKTISKAKGQPREPQVYTLPPSRDELTKNQVSLWCLVKGFYPSDIAVEWESYGTEWANYKTTPPVLDSDGSFFLYSKLTVTKEEWQQGFVFSCSVMHEALHNHYTQKSLSLSPGK
chain 2: EAPHLVQVDAARALWPLRRFWRSTGFCPPLPHSQADQYVLSWDQQLNLAYVGAVPHRGIKQVRTHWLLELVTTRGSTGRGLSYNFTHLDGYLDLLRENQLLPGFELMGSASGHFTDFEDKQQVFEWKDLVSSLARRYIGRYGLAHVSKWNFETWNEPDHHDFDNVSMTMQGFLNYYDACSEGLRAASPALRLGGPGDSFHTPPRSPLSWGLLRHCHDGTNFFTGEAGVRLDYISLHRKGARSSISILEQEKVVAQQIRQLFPKFADTPIYNDEADPLVGWSLPQPWRADVTYAAMVVKVIAQHQNLLLANTTSAFPYALLSNDNAFLSYHPHPFAQRTLTARFQVNNTRPPHVQLLRKPVLTAMGLLALLDEEQLWAEVSQAGTVLDSNHTVGVLASAHRPQGPADAWRAAVLIYASDDTRAHPNRSVAVTLRLRGVPPGPGLVYVTRYLDNGLCSPDGEWRRLGRPVFPTAEQFRRMRAAEDPVAAAPRPLPAGGRLTLRPALRLPSLLLVHVCARPEKPPGQVTRLRALPLTQGQLVLVWSDEHVGSKCLWTYEIQFSQDGKAYTPVSRKPSTFNLFVFSPDTGAVSGSYRVRALDYWARPGPFSDPVPYLEVPVPRGPPSPGNPGGGGSDKTHTCPPCPAPEAAGGPSVFLFPPKPKDTLMISRTPEVTCVVVDVSHEDPEVKFNWYVDGVEVHNAKTKPREEQYNSTYRVVSVLTVLHQDWLNGKEYKCKVSNKALSAPIEKTISKAKGQPREPQVYTLPPSRDELTKNQVSLSCAVKGFYPSDIAVEWESNGQPENNYKTTPPVLDSDGSFFLVSKLTVDKSRWQQGNVFSCSVMHEALHNHYTQKSLSLSPGK
notes: Heterodimer of the two chains; also called third N-terminal monozyme IDUA-Fc fusion protein

Kd: 355 nM
B2: ETV:IDUA Fusion 4 (Fc fusion)
chain 1: B1 chain 1
chain 2: EAPHLVQVDAARALWPLRRFWRSTGFCPPLPHSQADQYVLSWDQQLNLAYVGAVPHRGIKQVRTHWLLELVTTRGSTGRGLSYNFTHLDGYLDLLRENQLLPGFELMGSASGHFTDFEDKQQVFEWKDLVSSLARRYIGRYGLAHVSKWNFETWNEPDHHDFDNVSMTMQGFLNYYDACSEGLRAASPALRLGGPGDSFHTPPRSPLSWGLLRHCHDGTNFFTGEAGVRLDYISLHRKGARSSISILEQEKVVAQQIRQLFPKFADTPIYNDEADPLVGWSLPQPWRADVTYAAMVVKVIAQHQNLLLANTTSAFPYALLSNDNAFLSYHPHPFAQRTLTARFQVNNTRPPHVQLLRKPVLTAMGLLALLDEEQLWAEVSQAGTVLDSNHTVGVLASAHRPQGPADAWRAAVLIYASDDTRAHPNRSVAVTLRLRGVPPGPGLVYVTRYLDNGLCSPDGEWRRLGRPVFPTAEQFRRMRAAEDPVAAAPRPLPAGGRLTLRPALRLPSLLLVHVCARPEKPPGQVTRLRALPLTQGQLVLVWSDEHVGSKCLWTYEIQFSQDGKAYTPVSRKPSTFNLFVFSPDTGAVSGSYRVRALDYWARPGPFSDPVPYLEVPVGGGGSDKTHTCPPCPAPEAAGGPSVFLFPPKPKDTLMISRTPEVTCVVVDVSHEDPEVKFNWYVDGVEVHNAKTKPREEQYNSTYRVVSVLTVLHQDWLNGKEYKCKVSNKALSAPIEKTISKAKGQPREPQVYTLPPSRDELTKNQVSLSCAVKGFYPSDIAVEWESNGQPENNYKTTPPVLDSDGSFFLVSKLTVDKSRWQQGNVFSCSVMHEALHNHYTQKSLSLSPGK
notes: Heterodimer of the two chains; also called fourth N-terminal monozyme IDUA-Fc fusion protein

Kd: 200 nM
B3: ETV:IDUA Fusion 6 (Fc fusion)
chain 1: B1 chain 1
chain 2: DKTHTCPPCPAPEAAGGPSVFLFPPKPKDTLMISRTPEVTCVVVDVSHEDPEVKFNWYVDGVEVHNAKTKPREEQYNSTYRVVSVLTVLHQDWLNGKEYKCKVSNKALSAPIEKTISKAKGQPREPQVYTLPPSRDELTKNQVSLSCAVKGFYPSDIAVEWESNGQPENNYKTTPPVLDSDGSFFLVSKLTVDKSRWQQGNVFSCSVMHEALHNHYTQKSLSLSPGKGGGGSEAPHLVQVDAARALWPLRRFWRSTGFCPPLPHSQADQYVLSWDQQLNLAYVGAVPHRGIKQVRTHWLLELVTTRGSTGRGLSYNFTHLDGYLDLLRENQLLPGFELMGSASGHFTDFEDKQQVFEWKDLVSSLARRYIGRYGLAHVSKWNFETWNEPDHHDFDNVSMTMQGFLNYYDACSEGLRAASPALRLGGPGDSFHTPPRSPLSWGLLRHCHDGTNFFTGEAGVRLDYISLHRKGARSSISILEQEKVVAQQIRQLFPKFADTPIYNDEADPLVGWSLPQPWRADVTYAAMVVKVIAQHQNLLLANTTSAFPYALLSNDNAFLSYHPHPFAQRTLTARFQVNNTRPPHVQLLRKPVLTAMGLLALLDEEQLWAEVSQAGTVLDSNHTVGVLASAHRPQGPADAWRAAVLIYASDDTRAHPNRSVAVTLRLRGVPPGPGLVYVTRYLDNGLCSPDGEWRRLGRPVFPTAEQFRRMRAAEDPVAAAPRPLPAGGRLTLRPALRLPSLLLVHVCARPEKPPGQVTRLRALPLTQGQLVLVWSDEHVGSKCLWTYEIQFSQDGKAYTPVSRKPSTFNLFVFSPDTGAVSGSYRVRALDYWARPGPFSDPVPYLEVPVPRGPPSPGNP
notes: Heterodimer of the two chains; also called C-terminal monozyme IDUA-Fc fusion protein

From US20250136963A1 (DENALI THERAPEUTICS, published 2025)
